According to patent US20260234247A1:

Columns and labels:
[1] = target: Rhesus LILRB1 (NP_001035762.2) protein (rhesus macaque) (UniProt F7H3G7); experiment: ELISA on rhesus LILRB1 (NP_001035762.2) protein
[2] = target: Rhesus LILRB1 (NP_001035762.2) on CHOK1 cells (rhesus macaque) (UniProt F7H3G7); experiment: flow cytometry on CHOK1-rhesus LILRB1 (NP_001035762.2) cells

B1: LK-RB1-5 (antibody, human IgG4 S228P, kappa, V domains shown)
VH: QVQLQQPGAELVKPGASVKLSCKASGYTFTDFWIHWVKQRPGQGLEWIGMIHPNSGSTNFNEKFRAKATLTVDKSSSTAYMRLSSLTSEDSAVYYCARSGDGYSNPMDYWGQGTSVTVSS
VL: QIVLSQSPAILSASPGEKVTLTCRASSSVSYMHWYQQKPGSSPKPWIYATSNLASGVPVRFSGSGSGTSYSLTISRMQTEDAATYYCQQWRRSPYTFGGGTKLEIKR
Binder B1 has an EC50 [1] of 0.05 nM and an EC50 [2] of 1.08 nM.
